{"source": "patent US20150376261A1", "assay_in_all_cases": "cell-based or functional assay", "key": {"[1]": {"target": "M2Δi3R (human) (UniProt P08172)", "sequence (P08172 other isoform, or with tags, fused parts or gaps mutant limits assumed)": "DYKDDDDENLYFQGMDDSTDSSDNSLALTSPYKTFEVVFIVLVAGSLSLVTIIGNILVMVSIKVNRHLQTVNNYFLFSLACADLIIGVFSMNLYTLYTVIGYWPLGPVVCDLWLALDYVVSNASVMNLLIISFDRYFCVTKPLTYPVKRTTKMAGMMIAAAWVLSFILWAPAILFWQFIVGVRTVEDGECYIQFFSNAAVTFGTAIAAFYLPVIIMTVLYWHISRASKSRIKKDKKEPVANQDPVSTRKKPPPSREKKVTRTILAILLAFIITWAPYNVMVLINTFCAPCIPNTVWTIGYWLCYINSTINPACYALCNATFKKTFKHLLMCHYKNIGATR"}, "[2]": {"target": "hβ1AR (human) (UniProt P08588)", "sequence (P08588 other isoform, or with tags, fused parts or gaps)": "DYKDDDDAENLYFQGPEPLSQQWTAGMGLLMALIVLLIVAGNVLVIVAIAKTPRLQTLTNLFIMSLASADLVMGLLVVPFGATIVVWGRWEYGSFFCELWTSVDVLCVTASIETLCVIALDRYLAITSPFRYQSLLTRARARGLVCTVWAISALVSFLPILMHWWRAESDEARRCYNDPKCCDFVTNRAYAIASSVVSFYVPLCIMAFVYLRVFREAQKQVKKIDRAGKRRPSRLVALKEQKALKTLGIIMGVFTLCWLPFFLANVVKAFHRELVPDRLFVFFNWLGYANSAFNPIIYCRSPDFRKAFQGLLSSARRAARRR"}, "[3]": {"target": "β2AR365N (human) (UniProt P07550)"}}, "data": [{"binder": "Nb9-1 (VHH) VHH: QVQLQESGGGLVQAGGSLRLSCAASGHTFSSARMYWVRQAPGKEREFVAAISRSGFTYSADSVKGRFTISRDIANNTVYLQMNSLQPEDTAIYTCYAAYLDEFYNDYTHYWGLGTQVTVSS", "values": [{"measurement": "IC50 ratio, carbachol: IC50 M2Δi3R / IC50high M2Δi3R-Nb9-1 fusion ([3H]-NMS competition, Sf9 membranes)", "setting": "[1]", "value": 67.2}, {"measurement": "IC50 ratio, oxotremorine M: IC50 M2Δi3R / IC50high M2Δi3R-Nb9-1 fusion", "setting": "[1]", "value": 316}]}, {"binder": "Nb80 (VHH) VHH: QVQLQESGGGLVQAGGSLRLSCAASGSIFSINTMGWYRQAPGKQRELVAAIHSGGSTNYANSVKGRFTISRDNAANTVYLQMNSLKPEDTAVYYCNVKDYGAVLYEYDYWGQGTQVTVSS", "values": [{"measurement": "IC50 ratio, ICI-118,551: IC50 hβ1AR-Nb69 / IC50high hβ1AR-Nb80 fusion", "setting": "[2]", "value": 0.077}, {"measurement": "IC50 ratio, alprenolol: IC50 hβ1AR-Nb69 / IC50high hβ1AR-Nb80 fusion", "setting": "[2]", "value": 0.988}, {"measurement": "IC50 ratio, epinephrine: IC50 hβ1AR-Nb69 / IC50high hβ1AR-Nb80 fusion ([3H]-DHA competition, Sf9 membranes)", "setting": "[2]", "value": 68.7}, {"measurement": "IC50 ratio, ICI-118,551: β2AR365N-Nb69 mock fusion / β2AR365N-Nb80 fusion", "setting": "[3]", "value": 0.023}, {"measurement": "IC50 ratio, alprenolol: β2AR365N-Nb69 mock fusion / β2AR365N-Nb80 fusion", "setting": "[3]", "value": 4}, {"measurement": "IC50 ratio, carvedilol: non-fused β2AR365N / β2AR365N-Nb80 fusion", "setting": "[3]", "value": 0.22}, {"measurement": "IC50 ratio, carvedilol: β2AR365N-Nb69 mock fusion / β2AR365N-Nb80 fusion", "setting": "[3]", "value": 0.4}, {"measurement": "IC50 ratio, epinephrine: non-fused β2AR365N / β2AR365N-Nb80 fusion", "setting": "[3]", "value": 1380}, {"measurement": "IC50 ratio, epinephrine: β2AR365N-Nb69 mock fusion / β2AR365N-Nb80 fusion ([3H]-DHA competition; Nb fused to the receptor)", "setting": "[3]", "value": 2070}, {"measurement": "IC50 ratio, isoproterenol: β2AR365N-Nb69 mock fusion / β2AR365N-Nb80 fusion", "setting": "[3]", "value": 670}, {"measurement": "IC50 ratio, salbutamol: β2AR365N-Nb69 mock fusion / β2AR365N-Nb80 fusion", "setting": "[3]", "value": 373}, {"measurement": "apparent potency shift, compound 9: IC50 β2AR365N-Nb69 / IC50 β2AR365N-Nb80 fusion", "setting": "[3]", "value": 71}, {"measurement": "apparent potency shift, compound 10: IC50 β2AR365N-Nb69 / IC50 β2AR365N-Nb80 fusion", "setting": "[3]", "value": 94}, {"measurement": "apparent potency shift, epinephrine: Nb80 fusion compared to Nb69 fusion (Example 19 experiment)", "setting": "[3]", "value": 855}, {"measurement": "apparent potency shift, fragment CC56213: IC50 β2AR365N-Nb69 / IC50 β2AR365N-Nb80 fusion", "setting": "[3]", "value": 22}, {"measurement": "apparent potency shift, isoprotenerol: Nb80 fusion compared to Nb69 fusion (Example 19 experiment)", "setting": "[3]", "value": 155}, {"measurement": "concentration of exogenous Nb80 at which the epinephrine IC50 of non-fused β2AR365N equals that of the fusion", "setting": "[3]", "value": 5, "unit": "µM"}, {"measurement": "effective intramolecular concentration of Nb80 in the β2AR365N-Nb80 fusion", "setting": "[3]", "value": "> 500", "unit": "nM"}, {"measurement": "epinephrine potency shift: IC50 of the mock fusion / IC50 of non-fused β2AR365N with 500 nM exogenous Nb80", "setting": "[3]", "value": 87, "unit": "fold"}, {"measurement": "epinephrine potency shift: IC50 of the mock fusion / IC50 of the β2AR365N-Nb80 fusion (Nb80 fused to the receptor)", "setting": "[3]", "value": 534, "unit": "fold"}, {"measurement": "molar excess of exogenous Nb80 over β2AR needed to match the fusion", "setting": "[3]", "value": 12500, "unit": "fold"}]}, {"binder": "Nb71 (VHH) VHH: QVQLQESGGGLVQPGGSLRLSCAASGFAFSSYELRWYRQAPGKQHELVAGITTGGNTYYADSVKGRFTISRDNAKNTVYLQMSNLRPEDTAVYACNANWDLLSDYWGQGTQVTVSS", "values": [{"measurement": "IC50 ratio, ICI-118,551: β2AR365N-Nb69 mock fusion / β2AR365N-Nb71 fusion", "setting": "[3]", "value": 0.01}, {"measurement": "IC50 ratio, alprenolol: β2AR365N-Nb69 mock fusion / β2AR365N-Nb71 fusion", "setting": "[3]", "value": 1.5}, {"measurement": "IC50 ratio, carvedilol: β2AR365N-Nb69 mock fusion / β2AR365N-Nb71 fusion", "setting": "[3]", "value": 0.6}, {"measurement": "IC50 ratio, epinephrine: β2AR365N-Nb69 mock fusion / β2AR365N-Nb71 fusion", "setting": "[3]", "value": 2030}, {"measurement": "IC50 ratio, isoproterenol: β2AR365N-Nb69 mock fusion / β2AR365N-Nb71 fusion", "setting": "[3]", "value": 80}, {"measurement": "IC50 ratio, salbutamol: β2AR365N-Nb69 mock fusion / β2AR365N-Nb71 fusion", "setting": "[3]", "value": 454}]}]}
